Test system: MS2 coat protein
Experiment: apparent KD of MS2 coat protein; designed switch direction (-1 OFF switch, 1 ON switch): -1; higher = weaker reporter binding
Summary of the method: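 Apparent KD, taken as the median over clusters for each design, was obtained by curve-fitting normalised cluster fluorescence. Designed RNA switches had been transcribed on Illumina chips by stalled E. coli RNA polymerase and titrated with SNAP-549-labelled MS2 coat protein, doubling from 0.7 or 1.5 nM to 3 µM.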

[1] = Eterna round: R95, input ligand: microRNA oligo, concentration not stated
[2] = Eterna round: R95, input ligand: FMN 200 uM
[3] = Eterna round: R95, input ligand: none
[4] = input ligand: microRNA oligo, concentration not stated

AGUUUUAAUGAGGAUAUCGUAUUGGAUAUAGUGCGAGAAGGCAUUACAUGAGGAUCACCCAUGUUUUGUUGGGA [JR_Ex6_Sub008] (Eterna round: R97, puzzle: Exclusion 6)
apparent KD of MS2 coat protein (input ligand: FMN 200 uM): 58.1 nM | apparent KD of MS2 coat protein (input ligand: none): 24.5 nM

UUUUCUUUUGUGAGGAUAUACUUGUUUUUUUUUUUGUAGAAGGCACAUGAGGAUCACCCAUGUACUCUUUCCUG [JR_BME4_Sub024] (puzzle: Brourd's mod of Exclusion 4)
apparent KD of MS2 coat protein [1]: 20.1 nM

ACACGGAUAGGAUAUACUUGAGGAUCACCCAAGUGGAACCGCUUGUCCCGAUCCUAGAGUAGAAGGAUCAAAUA [Anusxebiat] (Eterna round: R97, puzzle: Exclusion 3)
apparent KD of MS2 coat protein (input ligand: FMN 200 uM): 149 nM | apparent KD of MS2 coat protein (input ligand: none): 44.3 nM

CCAGGCAGUGUGAGGAUAUGCUGGUGGAUACAUCAGCAGAAGGCACAUGAGGAUCACCCAUGUGAAGAGCUUGG [Mat - Exclusion 4 - JL Mod - D99] (puzzle: Brourd's mod of Exclusion 4)
apparent KD of MS2 coat protein [2]: 136 nM | apparent KD of MS2 coat protein [1]: 19 nM | apparent KD of MS2 coat protein [3]: 20.5 nM

GGCUUGCUAGUAGGAUAUCGCUUGUACAUGAGGAUCACCCAUGUGUGAUAUGCCUACAUAGUGCGUGAGAAGGACUGCAAGCCG [Diatdiinin] (Eterna round: R96, puzzle: Exclusion NG 2)
apparent KD of MS2 coat protein (input ligand: FMN 200 uM): 23.2 nM | apparent KD of MS2 coat protein [4]: 8.15 nM | apparent KD of MS2 coat protein (input ligand: none): 14.1 nM

CCAAGAUAGGAAGGAUAUUGUACAUGAGGAUCACCCAUGUAAUAAAUGAGGAUCACGGAUGUAGACAAGAAGGUCCGGAUAAGC [Ostracism 5 - Jieux - Exclusion NG 2] (Eterna round: R96, puzzle: Exclusion NG 2)
apparent KD of MS2 coat protein (input ligand: FMN 200 uM): 84.1 nM | apparent KD of MS2 coat protein [4]: 25.1 nM | apparent KD of MS2 coat protein (input ligand: none): 45.1 nM

AGUAGGAGAGGAUAUACAUGAAGUCGAAAGACUUCGACUCAACAUGAGGAUCACCCAUGUAGAAGGCUCCUACA [Omei Ex2 BD A7] (Eterna round: R97, puzzle: Exclusion 2)
apparent KD of MS2 coat protein (input ligand: FMN 200 uM): 126 nM | apparent KD of MS2 coat protein (input ligand: none): 47.3 nM

AGUAGAUCUACGCUUGCGUGGAUCUGCAAUGCAGGUGUUACAUGAGGAUCACCCAUGUCCUCGUUUGCUCGUCUUAG [JL turnoff v2 99.11] (puzzle: Sensor v3, turn-off variant 2)
apparent KD of MS2 coat protein [2]: 145 nM | apparent KD of MS2 coat protein [1]: 508 nM | apparent KD of MS2 coat protein [3]: 133 nM

UAUGUGUGAGGAUAUGGUAAAGAUAAGAUGAUGAAAGAACUCCAGAAGGCACAUGAGGAUCACCCAUGUAGAUA [Mat - Exclusion 4 - Mod of JL - D23] (puzzle: Exclusion 4)
apparent KD of MS2 coat protein [1]: 20.4 nM

CGUGCGUAUGUGAGGAUAUGCUGGUCCUUGGAUCGGCAGAAGGCACAUGAGGAUCACCCAUGUGGUGUCGUACU [salish99_Bmod_ex4_081] (puzzle: Brourd's mod of Exclusion 4)
apparent KD of MS2 coat protein [1]: 216 nM

AAGUCGACGGUGAGGAUAUAGGUCGAACGACCGAUCUAGAAGGCACAUGAGGAUCACCCAUGUGGGUAACGUCG [Brourd's EX4 #33] (Eterna round: R97, puzzle: Brourd's mod of Exclusion 4)
apparent KD of MS2 coat protein (input ligand: FMN 200 uM): 29 nM | apparent KD of MS2 coat protein (input ligand: none): 22.3 nM

AAUUACAAGCAAAGAUCUUACAUGAGGAUCACCCAUGUGCUCGUUUUAUAAAGUACUAUCACGAAAGUGAUAGUACA [Mat - Sensor v3 - turn-off var 1 - Eli Mod - D95] (puzzle: Sensor v3, turn-off variant 1)
apparent KD of MS2 coat protein [2]: 29.9 nM | apparent KD of MS2 coat protein [1]: 90.9 nM | apparent KD of MS2 coat protein [3]: 26.3 nM

AGUAACUAUCACGAAAGUGAUAGUUACGCAAGCAGUGAAACAUGAGGAUCACCCAUGUCCUCAUUUGCUCGUCUUAU [Sensor 3 - 26] (puzzle: Sensor v3, turn-off variant 2)
apparent KD of MS2 coat protein [2]: 53.9 nM | apparent KD of MS2 coat protein [1]: 435 nM | apparent KD of MS2 coat protein [3]: 48.6 nM

CUGCUCCGUGUAGGAUAUGCGCGCACCCAACGCGCAGAAGGACAUGAGGAUCACCCAUGUAUGUUAUUAUCACGUGAGGCGCAG [Design 34] (Eterna round: R96, puzzle: Exclusion NG 1)
apparent KD of MS2 coat protein (input ligand: FMN 200 uM): 28.8 nM | apparent KD of MS2 coat protein [4]: 14.4 nM | apparent KD of MS2 coat protein (input ligand: none): 17.7 nM

CUCCGGCGUGUAGGAUAUGGUUCCGUUUAGGUUCCAGAAGGACAUGAGGAUCACCCAUGUACAUGUCGUCGGUCGUCACCGGGC [salish99_ExNG1_r04_213] (Eterna round: R96, puzzle: Exclusion NG 1)
apparent KD of MS2 coat protein (input ligand: FMN 200 uM): 87.3 nM | apparent KD of MS2 coat protein [4]: 28.8 nM | apparent KD of MS2 coat protein (input ligand: none): 33.1 nM

CAAGCUUUUCCAUUUCUAUACAUGAGGAUCACCCAUGUCCCGAGUUGGGUGAGCACUCUGGUCGUCGUUUCUACCAA [Envele] (Eterna round: R96, puzzle: Sensor v2, turn-off variant)
apparent KD of MS2 coat protein (input ligand: FMN 200 uM): 432 nM | apparent KD of MS2 coat protein [4]: 181 nM | apparent KD of MS2 coat protein (input ligand: none): 278 nM

AAGAAGAAGUAAGGAUAUGAAGAUUUGGUGAUAACAUGAGGAUCACCCAUGUGAAAACAAUAAGAUCAGAAGGUAUAAGAAGAA [AK ExNG2-2.1] (Eterna round: R96, puzzle: Exclusion NG 2)
apparent KD of MS2 coat protein (input ligand: FMN 200 uM): 53.9 nM | apparent KD of MS2 coat protein [4]: 42.1 nM | apparent KD of MS2 coat protein (input ligand: none): 72.1 nM

CUCUUGGCAGGAUAUGCUCUCUUAGACAUGAGGAUCACCCAUGUGCUCAUUCCUUCUUUUGCAGAAGGGCCUUAAC [JR_E5_Sub047] (puzzle: Exclusion 5)
apparent KD of MS2 coat protein [1]: 63.9 nM

GAGGUGUAAGGAUAUAGCUAUAGGCUAACCGGGACCCAUAGCUAGAAGGUACAUGAGGAUCACCCAUGUUUGCU [Eternabot (L1) Solution 99] (Eterna round: R97, puzzle: Exclusion 4)
apparent KD of MS2 coat protein (input ligand: FMN 200 uM): 34.9 nM | apparent KD of MS2 coat protein (input ligand: none): 22.6 nM

UUGUGCACGCUGCGAUCCUACAUGAGGAUCACCCAUGUGGUCUGGUGGCGUGGGUCACCGGACUUGGCUCGUCUUGG [salish99_S_TOV1_R5_076] (Eterna round: R97, puzzle: Sensor, turn-off variant 1)
apparent KD of MS2 coat protein (input ligand: FMN 200 uM): 126 nM | apparent KD of MS2 coat protein (input ligand: none): 138 nM

GCGCGAAGGUAGGAUAUCGACGGAUCUUCCGGCCGAGAAGGACCCACAUGAGGAUCACCCAUGUGGUGAUCCUG [eternacac ex6r4 sub10] (Eterna round: R97, puzzle: Exclusion 6)
apparent KD of MS2 coat protein (input ligand: FMN 200 uM): 17.5 nM | apparent KD of MS2 coat protein (input ligand: none): 16.5 nM

CAUUAUUAUCGAGGAUAUCCUAUUGAAAUUCUGGGAGAAGGCGGACUCAACAUGAGGAUCACCCAUGUGAGACGGGUGCUAGGG [Ex NG1 #26] (Eterna round: R96, puzzle: Exclusion NG 1)
apparent KD of MS2 coat protein [4]: 19.6 nM

AGGUGUAGAGGAUAUUGAGUUCUUUACAUGAGGAUCACCCAUGUCCUGGGCACCCAGGACCAAGAAGGCUACACCA [Omei Ex5 D31] (Eterna round: R97, puzzle: Exclusion 5)
apparent KD of MS2 coat protein (input ligand: FMN 200 uM): 38.4 nM | apparent KD of MS2 coat protein (input ligand: none): 72.6 nM

GAUUAUGCGAGCUUUAGGGACAUGAGGAUCACCCAUGUUCGUCUUAUUAGUCUAGGUGCACUGACAUACCUAAAUCU [JMF 90] (puzzle: Sensor v3, turn-off variant 1)
apparent KD of MS2 coat protein [2]: 19.1 nM | apparent KD of MS2 coat protein [1]: 26.1 nM | apparent KD of MS2 coat protein [3]: 18.3 nM

GAUCGACAUGAGGAUCACCCAUGUCAGGAUAUCGUCACUGGAGCCUCGGCUCCAGUGACGAGAAGGGACAUAAU [E1/13-A2] (Eterna round: R97, puzzle: Exclusion 1)
apparent KD of MS2 coat protein (input ligand: FMN 200 uM): 46.8 nM | apparent KD of MS2 coat protein (input ligand: none): 39.4 nM
